Laboratory results taken from patent US7098310B1, “Heterodimers of retinoid X receptors (RXRS) and other steroid hormone receptors” (Ligand Pharmaceuticals, priority 1991, dated 2006).

T1: retinoid x receptor (RXRα) (human, UniProt P19793 1-462)
T1 construct: mature; In vitro translated full length receptor; 35S-labelled in the column and immunoprecipitation experiments
T1 sequence (looked up): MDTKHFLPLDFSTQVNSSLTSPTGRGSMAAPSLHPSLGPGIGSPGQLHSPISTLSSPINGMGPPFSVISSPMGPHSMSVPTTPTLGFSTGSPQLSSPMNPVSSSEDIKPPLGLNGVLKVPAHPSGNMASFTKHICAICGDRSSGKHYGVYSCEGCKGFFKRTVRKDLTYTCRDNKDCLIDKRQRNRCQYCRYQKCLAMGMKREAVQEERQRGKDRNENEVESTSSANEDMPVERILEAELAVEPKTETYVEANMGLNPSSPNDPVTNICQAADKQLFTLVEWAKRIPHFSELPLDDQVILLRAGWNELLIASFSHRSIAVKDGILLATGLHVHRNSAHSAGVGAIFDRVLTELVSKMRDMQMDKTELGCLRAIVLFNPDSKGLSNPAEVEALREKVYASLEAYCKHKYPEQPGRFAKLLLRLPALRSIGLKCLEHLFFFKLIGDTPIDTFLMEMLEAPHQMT

T2: retinoic acid receptor RARγ (UniProt P13631 1-454, limits assumed)
T2 construct: mature; In vitro translated
T2 sequence (looked up): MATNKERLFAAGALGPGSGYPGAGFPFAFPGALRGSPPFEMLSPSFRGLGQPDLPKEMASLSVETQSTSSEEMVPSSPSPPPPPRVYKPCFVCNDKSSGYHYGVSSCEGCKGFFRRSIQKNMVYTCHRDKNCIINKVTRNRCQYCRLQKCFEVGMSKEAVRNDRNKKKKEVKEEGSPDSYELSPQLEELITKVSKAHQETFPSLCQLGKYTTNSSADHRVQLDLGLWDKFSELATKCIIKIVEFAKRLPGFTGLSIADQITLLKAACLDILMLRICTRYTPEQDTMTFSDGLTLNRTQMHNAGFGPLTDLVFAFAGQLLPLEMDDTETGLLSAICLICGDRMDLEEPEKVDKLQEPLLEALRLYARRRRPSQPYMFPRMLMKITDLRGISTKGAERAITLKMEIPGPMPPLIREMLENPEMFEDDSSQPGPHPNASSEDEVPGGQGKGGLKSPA

T3: thyroid hormone receptor TRβ (human, UniProt P10828 1-461)
T3 construct: mature; In vitro translated; also called TR-B; c-erb-A-B
T3 sequence (looked up): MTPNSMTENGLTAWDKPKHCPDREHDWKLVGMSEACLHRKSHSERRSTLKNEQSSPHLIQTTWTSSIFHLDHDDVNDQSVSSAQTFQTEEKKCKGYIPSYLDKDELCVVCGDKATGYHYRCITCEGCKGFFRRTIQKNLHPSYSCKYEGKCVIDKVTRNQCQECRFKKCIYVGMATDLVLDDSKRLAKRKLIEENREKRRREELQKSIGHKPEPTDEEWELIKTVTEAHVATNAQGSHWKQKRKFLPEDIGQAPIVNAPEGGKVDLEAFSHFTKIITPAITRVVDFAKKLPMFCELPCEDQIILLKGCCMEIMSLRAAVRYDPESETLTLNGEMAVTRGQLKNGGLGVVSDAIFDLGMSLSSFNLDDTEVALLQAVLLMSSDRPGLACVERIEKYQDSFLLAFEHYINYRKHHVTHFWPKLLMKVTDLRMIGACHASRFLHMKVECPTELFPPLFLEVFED

T4: retinoic acid receptor RARα (UniProt P10276 1-462, limits assumed)
T4 construct: mature; In vitro translated
T4 sequence (looked up): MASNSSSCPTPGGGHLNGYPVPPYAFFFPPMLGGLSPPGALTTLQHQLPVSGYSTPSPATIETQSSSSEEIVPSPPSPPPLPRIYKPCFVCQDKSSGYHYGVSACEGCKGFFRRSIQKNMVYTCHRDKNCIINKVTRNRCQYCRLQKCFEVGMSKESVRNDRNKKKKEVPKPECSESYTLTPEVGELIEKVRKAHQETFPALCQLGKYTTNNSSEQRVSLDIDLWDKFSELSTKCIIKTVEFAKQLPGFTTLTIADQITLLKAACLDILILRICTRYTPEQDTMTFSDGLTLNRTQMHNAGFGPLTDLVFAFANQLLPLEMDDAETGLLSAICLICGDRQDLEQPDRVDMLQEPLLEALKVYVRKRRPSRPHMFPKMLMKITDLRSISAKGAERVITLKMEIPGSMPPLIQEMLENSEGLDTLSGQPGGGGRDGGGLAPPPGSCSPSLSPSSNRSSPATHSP

T5: retinoic acid receptor RARβ (UniProt P10826 1-455, limits assumed)
T5 construct: mature; In vitro translated
T5 sequence (looked up): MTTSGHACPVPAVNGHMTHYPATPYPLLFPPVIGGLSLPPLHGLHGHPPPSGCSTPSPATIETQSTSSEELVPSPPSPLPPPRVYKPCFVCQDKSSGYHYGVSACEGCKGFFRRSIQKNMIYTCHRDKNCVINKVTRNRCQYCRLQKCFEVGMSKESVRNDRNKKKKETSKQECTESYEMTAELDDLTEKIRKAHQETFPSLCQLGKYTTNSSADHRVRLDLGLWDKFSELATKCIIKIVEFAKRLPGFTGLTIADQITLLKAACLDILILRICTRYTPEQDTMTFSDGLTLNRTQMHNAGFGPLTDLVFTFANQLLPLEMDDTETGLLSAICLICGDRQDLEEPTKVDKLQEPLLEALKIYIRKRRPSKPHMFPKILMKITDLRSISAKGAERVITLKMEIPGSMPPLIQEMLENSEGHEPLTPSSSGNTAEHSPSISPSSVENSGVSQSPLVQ


Legend:
[1] = target: T1, retinoid x receptor (RXRα); test: gel retardation, 32P palindromic TRE, in vitro translated receptors
Procedure: (§1) After incubation at room temperature for 45 minutes, the effect of antibody on slow migrating complexes was analyzed by gel retardation using ^32-labelled palindromic TRE as a probe. As a control, receptor mixtures were also incubated with preimmune serum (NI).
(§2) In vitro translated receptor protein (1 to 5 µl depending on the translation efficiency) was incubated with the ^32P-labeled oligonucleotides in a 20-µl reaction mixture containing 10 mM hepes buffer, pH 7.9, 50 mM KCl, 1 mM DTT, 2.5 mM MgCl, 10% glycerol, and 1 µg of poly(dI-dC) at 25° C. for 20 minutes. In general, relative low receptor concentration was used to obtain the clear effect of heterodimer formation. The reaction mixture was then loaded on a 5% nondenaturing polyacrylamide gel containing 0.5× TBE (1×TBE=0.089 M TRIS-borate, 0.089 M boric acid, and 0.002 M EDTA). […] When antibody was used, 1 µl of the antiserum was incubated with the specific translation products at room temperature for 45 minutes before performing the experiments described above.

[2] = target: T2, retinoic acid receptor RARγ; test: as above
Procedure: as §1, §2

[3] = target: T3, thyroid hormone receptor TRβ; test: gel retardation, 32P palindromic TRE (data not shown)
[4] = target: T4, retinoic acid receptor RARα; test: as above
[5] = target: T5, retinoic acid receptor RARβ; test: as above

| Binder | binding result [1] | binding result [2] | binding result [3] | other results |
| --- | --- | --- | --- | --- |
| RARγm1 (receptor, UniProt P13631 1-352, looked up, In vitro translated deletion mutant; also called RARγml) MATNKERLFAAGALGPGSGYPGAGFPFAFPGALRGSPPFEMLSPSFRGLGQPDLPKEMASLSVETQSTSSEEMVPSSPSPPPPPRVYKPCFVCNDKSSGYHYGVSSCEGCKGFFRRSIQKNMVYTCHRDKNCIINKVTRNRCQYCRLQKCFEVGMSKEAVRNDRNKKKKEVKEEGSPDSYELSPQLEELITKVSKAHQETFPSLCQLGKYTTNSSADHRVQLDLGLWDKFSELATKCIIKIVEFAKRLPGFTGLSIADQITLLKAACLDILMLRICTRYTPEQDTMTFSDGLTLNRTQMHNAGFGPLTDLVFAFAGQLLPLEMDDTETGLLSAICLICGDRMDLEEPEKVDK | no binding | – | – | – |
| RXRαm4 (receptor, human, UniProt P19793 61-462, looked up, range 61-462; 35S-labelled in the column experiment; also called mutant RXRαm4) MGPPFSVISSPMGPHSMSVPTTPTLGFSTGSPQLSSPMNPVSSSEDIKPPLGLNGVLKVPAHPSGNMASFTKHICAICGDRSSGKHYGVYSCEGCKGFFKRTVRKDLTYTCRDNKDCLIDKRQRNRCQYCRYQKCLAMGMKREAVQEERQRGKDRNENEVESTSSANEDMPVERILEAELAVEPKTETYVEANMGLNPSSPNDPVTNICQAADKQLFTLVEWAKRIPHFSELPLDDQVILLRAGWNELLIASFSHRSIAVKDGILLATGLHVHRNSAHSAGVGAIFDRVLTELVSKMRDMQMDKTELGCLRAIVLFNPDSKGLSNPAEVEALREKVYASLEAYCKHKYPEQPGRFAKLLLRLPALRSIGLKCLEHLFFFKLIGDTPIDTFLMEMLEAPHQMT | – | – | binds | – |
| RXRαm3 (receptor, human, UniProt P19793 28-462, looked up, range 28-C-terminus) MAAPSLHPSLGPGIGSPGQLHSPISTLSSPINGMGPPFSVISSPMGPHSMSVPTTPTLGFSTGSPQLSSPMNPVSSSEDIKPPLGLNGVLKVPAHPSGNMASFTKHICAICGDRSSGKHYGVYSCEGCKGFFKRTVRKDLTYTCRDNKDCLIDKRQRNRCQYCRYQKCLAMGMKREAVQEERQRGKDRNENEVESTSSANEDMPVERILEAELAVEPKTETYVEANMGLNPSSPNDPVTNICQAADKQLFTLVEWAKRIPHFSELPLDDQVILLRAGWNELLIASFSHRSIAVKDGILLATGLHVHRNSAHSAGVGAIFDRVLTELVSKMRDMQMDKTELGCLRAIVLFNPDSKGLSNPAEVEALREKVYASLEAYCKHKYPEQPGRFAKLLLRLPALRSIGLKCLEHLFFFKLIGDTPIDTFLMEMLEAPHQMT | – | – | binds | – |

Further lines, with some results ahead:

| binding result [1] | binding result [2] | binding result [3] | Binder | other results |
| --- | --- | --- | --- | --- |
| – | no binding | no binding | RXRαm1 (receptor, human, UniProt P19793 1-402, looked up, range: lacks the carboxyterminal 60 amino acids; In vitro translated deletion mutant) MDTKHFLPLDFSTQVNSSLTSPTGRGSMAAPSLHPSLGPGIGSPGQLHSPISTLSSPINGMGPPFSVISSPMGPHSMSVPTTPTLGFSTGSPQLSSPMNPVSSSEDIKPPLGLNGVLKVPAHPSGNMASFTKHICAICGDRSSGKHYGVYSCEGCKGFFKRTVRKDLTYTCRDNKDCLIDKRQRNRCQYCRYQKCLAMGMKREAVQEERQRGKDRNENEVESTSSANEDMPVERILEAELAVEPKTETYVEANMGLNPSSPNDPVTNICQAADKQLFTLVEWAKRIPHFSELPLDDQVILLRAGWNELLIASFSHRSIAVKDGILLATGLHVHRNSAHSAGVGAIFDRVLTELVSKMRDMQMDKTELGCLRAIVLFNPDSKGLSNPAEVEALREKVYASLEA | binding result [4]: no binding; binding result [5]: no binding |
| no binding | – | – | TRαm2 (receptor, UniProt P63059-2 1-213, looked up, In vitro translated deletion mutant) MEQKPSKVECGSDPEENSARSPDGKRKRKNGQCPLKSSMSGYIPSYLDKDEQCVVCGDKATGYHYRCITCEGCKGFFRRTIQKNLHPTYSCKYDSCCVIDKITRNQCQLCRFKKCIAVGMAMDLVLDDSKRVAKRKLIEQNRERRRKEEMIRSLQQRPEPTPEEWDLIHVATEAHRSTNAQGSHWKQRRKFLPDDIGQSPIVSMPDGDKVDLE | – |
| – | no binding | – | RXRαm6 (receptor, human, UniProt P19793 1-462, looked up, In vitro translated deletion mutant) MDTKHFLPLDFSTQVNSSLTSPTGRGSMGMKREAVQEERQRGKDRNENEVESTSSANEDMPVERILEAELAVEPKTETYVEANMGLNPSSPNDPVTNICQAADKQLFTLVEWAKRIPHFSELPLDDQVILLRAGWNELLIASFSHRSIAVKDGILLATGLHVHRNSAHSAGVGAIFDRVLTELVSKMRDMQMDKTELGCLRAIVLFNPDSKGLSNPAEVEALREKVYASLEAYCKHKYPEQPGRFAKLLLRLPALRSIGLKCLEHLFFFKLIGDTPIDTFLMEMLEAPHQMT | – |
| – | no binding | – | RXRαm5 (receptor, human, UniProt P19793 198-462, looked up) MGMKREAVQEERQRGKDRNENEVESTSSANEDMPVERILEAELAVEPKTETYVEANMGLNPSSPNDPVTNICQAADKQLFTLVEWAKRIPHFSELPLDDQVILLRAGWNELLIASFSHRSIAVKDGILLATGLHVHRNSAHSAGVGAIFDRVLTELVSKMRDMQMDKTELGCLRAIVLFNPDSKGLSNPAEVEALREKVYASLEAYCKHKYPEQPGRFAKLLLRLPALRSIGLKCLEHLFFFKLIGDTPIDTFLMEMLEAPHQMT | – |
| no binding | – | – | TRαm3 (receptor, UniProt P63059-2 1-167, looked up, In vitro translated deletion mutant) MEQKPSKVECGSDPEENSARSPDGKRKRKNGQCPLKSSMSGYIPSYLDKDEQCVVCGDKATGYHYRCITCEGCKGFFRRTIQKNLHPTYSCKYDSCCVIDKITRNQCQLCRFKKCIAVGMAMDLVLDDSKRVAKRKLIEQNRERRRKEEMIRSLQQRPEPTPEEWDL | – |
